Numbering of substitutions follows the chain as printed.
B1: m1008 (scFv)
scFv: QVQLQESGPGLVKPSQTLSLTCTVSGGSISSSGYYWSWVRQSPGKGLEWIGEIYQSGNTNYNPSLKSRVTISVDKPKNQLSLKLGSVTAADTAVYYCARGGSYYDYWGQGTLVTVSSGGGGSGGGGSGGGGSQSVVTQPPSVSAAPGQKVTISCSGSNSNIGNNYVSWYQQLPGTAPKVLIYDNNVRPSGIPDRFSGSKSGTSATLGITGLQTGDEADYYCETWDSSLNVGMFGGGTQLIVL
notes: Fully human; isolated from a phage display scFv library; Detected with anti-His-PE
B2: m1009 (scFv)
scFv: EVQLVQSGGGLVQPGGSLRLSCAASGFTFSSYAMSWVRQAPGKGLEWVSGISWNSGSIGYADSVKGRFTISRDNAKNSLYLQMNSLRAEDTALYYCAKVGGGGAFDIWGQGTMVTVSSGGGGSGGGGSGGGGSQSVLTQPPSVSAAPGQKVTISCSGSSSSIGDNYVSWYQQVPGTAPKLLIYGNNKRPSGIPDRLSGSKSGTSATLGITGLQTGDEADYYCGTWDNSLGGVFGGGTKLTVL
notes: as for B1
B3: m1006 (antibody, V domains shown)
VH: EVQLVESGGGLVQPGGSLRLSCAASGFTFSSYGMHWVRQAPGKGLEWVAVISYDGSNKYYADSVKGRFTISRDNSKNTLYLQMNSLRAEDTAVYYCANLAPWAAYWGQGTLVTVSS
VL: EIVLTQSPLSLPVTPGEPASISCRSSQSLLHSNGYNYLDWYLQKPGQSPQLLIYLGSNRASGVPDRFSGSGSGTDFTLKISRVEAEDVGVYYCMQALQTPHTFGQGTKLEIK
notes: Fully human; isolated from a phage display Fab library
B4: m1007 (antibody, V domains shown)
VH: B3 VH with L11V
VL: not shown
notes: as for B3
B5: m1012 (VHH)
VHH: EVQLVESGGGLVQPGGSLRLSCAASRFYFSGYEMSWVRQAPGKGLEWVSAISGSGGSTYYADSVKGRFTISRDNSKNTLYLQMNSLRAEDTAVYYCARRVVGAKLYFQHWGQGTLVTVSS
notes: Human VH single-domain antibody (not camelid) from a phage display VH domain library; Detected with anti-His-PE; also called single-domain antibody m1012

Legend:
cell-surface FLT3 = target: T1, cell-surface FLT3 (UniProt P36888 27-993, limits assumed); experiment: flow cytometry on RS4;11 cells, anti-His-PE detection
T1 construct: whole, on cells; also called FLT3 on FLT3-positive RS4; 11 cells
T1 sequence (looked up): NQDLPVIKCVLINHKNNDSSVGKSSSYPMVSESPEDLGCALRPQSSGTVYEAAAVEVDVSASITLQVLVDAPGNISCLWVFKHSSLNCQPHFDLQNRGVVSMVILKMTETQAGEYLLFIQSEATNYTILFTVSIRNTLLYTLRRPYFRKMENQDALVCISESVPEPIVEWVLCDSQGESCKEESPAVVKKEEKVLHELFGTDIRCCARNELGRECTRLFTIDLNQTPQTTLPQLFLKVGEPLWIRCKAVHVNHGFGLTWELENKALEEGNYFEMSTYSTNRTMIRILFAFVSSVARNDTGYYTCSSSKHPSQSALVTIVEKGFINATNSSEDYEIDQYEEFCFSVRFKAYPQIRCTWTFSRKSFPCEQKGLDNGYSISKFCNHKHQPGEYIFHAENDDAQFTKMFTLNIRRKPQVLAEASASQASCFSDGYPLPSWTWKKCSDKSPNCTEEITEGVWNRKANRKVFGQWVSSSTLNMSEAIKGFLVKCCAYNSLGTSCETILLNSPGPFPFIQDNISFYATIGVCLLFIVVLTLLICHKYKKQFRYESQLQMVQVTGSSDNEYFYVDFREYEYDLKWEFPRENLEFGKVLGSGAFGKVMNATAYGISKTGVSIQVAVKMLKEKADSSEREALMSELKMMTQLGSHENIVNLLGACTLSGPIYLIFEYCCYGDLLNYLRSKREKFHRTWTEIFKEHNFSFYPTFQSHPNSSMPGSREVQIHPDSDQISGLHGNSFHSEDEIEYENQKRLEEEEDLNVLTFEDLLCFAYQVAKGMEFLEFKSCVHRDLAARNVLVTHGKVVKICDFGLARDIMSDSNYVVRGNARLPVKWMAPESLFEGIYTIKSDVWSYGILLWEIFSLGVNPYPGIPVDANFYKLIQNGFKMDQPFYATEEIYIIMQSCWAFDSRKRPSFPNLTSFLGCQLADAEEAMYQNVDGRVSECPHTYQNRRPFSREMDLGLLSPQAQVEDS

recombinant soluble FLT3 [1] = target: T2, recombinant soluble FLT3 (human, UniProt P36888 27-541, limits assumed); experiment: ELISA on recombinant soluble FLT3 (FIG. 1B)
T2 construct: For the ELISA it says only 'recombinant soluble FLT3'; also called soluble recombinant FLT3; Fms-like tyrosine kinase 3
T2 sequence (looked up): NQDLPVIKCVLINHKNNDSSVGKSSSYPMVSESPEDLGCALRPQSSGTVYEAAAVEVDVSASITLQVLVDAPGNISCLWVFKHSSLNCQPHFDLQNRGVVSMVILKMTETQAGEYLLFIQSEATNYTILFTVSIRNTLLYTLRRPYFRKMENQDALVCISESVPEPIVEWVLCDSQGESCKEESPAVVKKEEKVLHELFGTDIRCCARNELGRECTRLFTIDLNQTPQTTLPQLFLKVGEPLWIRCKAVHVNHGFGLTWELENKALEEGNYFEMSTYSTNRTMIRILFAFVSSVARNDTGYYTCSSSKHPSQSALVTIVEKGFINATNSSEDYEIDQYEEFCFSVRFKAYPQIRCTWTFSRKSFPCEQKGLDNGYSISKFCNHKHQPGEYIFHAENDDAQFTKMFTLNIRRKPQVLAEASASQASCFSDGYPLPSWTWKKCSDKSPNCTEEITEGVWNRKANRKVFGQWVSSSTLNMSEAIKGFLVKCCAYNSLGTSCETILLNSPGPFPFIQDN

recombinant soluble FLT3 [2] = target: T2, recombinant soluble FLT3; experiment: ELISA on recombinant soluble FLT3 (FIG. 1A)
recombinant soluble FLT3 [3] = target: T2, recombinant soluble FLT3; experiment: ELISA on recombinant soluble FLT3 (FIG. 1C)

| Binder | binding result (cell-surface FLT3) | binding result (recombinant soluble FLT3 [1]) | binding result (recombinant soluble FLT3 [2]) | binding result (recombinant soluble FLT3 [3]) |
| --- | --- | --- | --- | --- |
| B1 | binds | binds |  |  |
| B2 | binds | binds |  |  |
| B3 | binds |  | binds |  |
| B4 | binds |  | binds |  |
| B5 | binds |  |  | binds |

Source: patent US20190352408A1 (US Dept. of Health and Human Services, published 2019)
